Data on one substance can be found in paper PMC9082627.

In the experiment the target is STX17-Flag (UniProt P56962). Description: co-IP.

As for “STING-HA C148A (from UniProt Q86WV6 1-379) (natural protein)”, the reduction of the co-immunoprecipitated interaction against STING WT was 50%.
